# Fewer inactive variants are shown than the library holds.
# B1: TPR 5TU (parent)
# chain: GGAUCUUCUCGAUCUAACAAAAAAGACAAAUCUGCCACAAAGCUUGAGAGCAUCUUCGGAUGCAGAGGCGGCAGCCUUCGGUGGCGCGAUAGCGCCAACGUUCUCAACUAUGACACGCAAAACGCGUGCUCCGUUGAAUGGAGUUUAUCAUG
# Variants of: B1
# Experiment: polymerase ribozyme fitness, log enrichment relative to wild type (log ratio); higher = more active; in vitro selection for triplet polymerase activity
# How it was run: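 To select mutant libraries of each subunit of a heterodimeric triplet polymerase ribozyme, built by PCR and transcribed, each was annealed with a biotinylated primer, partner subunit and triplets, then incubated frozen at −7 °C. Extended constructs were gel-excised, captured on streptavidin beads and amplified by RT-PCR, in one round carried out in triplicate. Illumina sequencing of input and output libraries kept genotypes with ≥10 input reads and ≥1 read per output. Fitness is the base-2 logarithm of genotype enrichment relative to wild-type enrichment, from inverse-variance-weighted replicate averages.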
row,Variant,polymerase ribozyme fitness (log ratio)
1,G92C U148C,-2.56
2,C85G U144A,-2.27
3,G86A C114U,-2.15
4,G86A C114A,-4.1
5,G92C G94A,-2.95
6,G88U U127C,-4.15
7,G88U A97U U102G G117U U139G,≤ -4.2
8,C87U C118U,-0.642
9,G92A G141C A147U,-3.44
10,U90C U148G,≤ -4.2
11,G86A A121U,-0.51
12,C85U C118U,-0.662
13,A91C A115G U146A,≤ -4.2
14,C87A C125U,-4.14
15,U90C A91U C114U C118U U144G,-4.15
16,C85G C118A A142U,-2.93
17,C87A G126A,-4.04
18,A89G A97G A113U C118A A120C G141C,≤ -4.2
19,G86C C87G C108G,≤ -4.2
20,A89U C95A A97U U111G G124A C149A U151C,≤ -4.2
21,C85U A91C C105U,≤ -4.2
22,C87G A97U G117C,≤ -4.2
23,C85U C95G,-2.03
24,C85U U127G,-3.46

row,Variant,polymerase ribozyme fitness (log ratio)
1,C87A C103A C114U,≤ -4.2
2,C85U G88A U151G,≤ -4.2
3,C87G A107G,≤ -4.2
4,G92A C103A G126A,-3.74
5,A89U C95G,-1.9
6,A89C A150C,-3.81
7,C93A A106C,-2.63
8,G86U C93U,-2.59
9,A91U C93A A122U G143C,≤ -4.2
10,C85U C118U A142U,-1.02
11,G92A A98C G133C A142U,≤ -4.2
12,A91C U144C,-4.19
13,G88U C95G C125U,≤ -4.2
14,C87U U90C,-3.33
15,G86C C99U,-2.83
16,G92C A138G G140A,≤ -4.2
17,C87U C118U U135G,≤ -4.2
18,G86A U148C,-1.5
19,A89C G117U,-0.705
20,C93A A107G,≤ -4.2
21,A91G C95U C125U,-4.09
22,G92U C105U A107U A110C A138C,≤ -4.2
23,C87G C99U,≤ -4.2
24,G92C C95A,-2.12

row,Variant,polymerase ribozyme fitness (log ratio)
1,C87U A89U,-1.2
2,G92U A147C,-0.377
3,G86A U90G,≤ -4.2
4,G86A A89G C103G A115G G126C,≤ -4.2
5,G86C G117A,-1.84
6,G92A G124A,-2.65
7,G86A U101G,-0.828
8,G86U G88A,≤ -4.2
9,C85U G136C,-3.29
10,A89U U90C G94U C114U G117U G133U,≤ -4.2
11,G86U G100A C131U,≤ -4.2
12,C87U C105U,-2.21
13,C93A C105A,≤ -4.2
14,C93A C116A G126A G141C,≤ -4.2
15,C87U C116G G152U,-3.11
16,G88A C96G,-3.74
17,C87U A89C U139G,-2.56
18,G88A,-3.75
19,G88C,-4.19
20,G88U,-3.89
21,G88A C95A C123A,≤ -4.2
22,C85U C108U,-3.1
23,C87U G136C,-3.65
24,C87G C93A,-3.63

row,Variant,polymerase ribozyme fitness (log ratio)
1,C85U A89C,-1.13
2,C87U C131A G140A,-3.61
3,C85U U127C A137U,≤ -4.2
4,G92A C96A C103G C105U A107G A119G C125U C149A,≤ -4.2
5,C85U C87G G140C,≤ -4.2
6,A91G C118G,-3.49
7,A91G C118U,-3.15
8,C85U G92U U139G,-1.29
9,U90C U102C A107U,≤ -4.2
10,G86U A147G,-3.45
11,C87U C108G U145G,≤ -4.2
12,G86A U90C U102C A137G,≤ -4.2
13,C85U C116G U145A,-2.57
14,C85G C125A,-2.37
15,C85G C131G G152U,≤ -4.2
16,A91G G152A,-3.71
17,C85U G126A A142G,-0.307
18,A89C G124A,-1.59
19,A91G C108U C116G G152A,-3.48
20,G86A G88U G117U,≤ -4.2
21,C87G C99U C116G,-3.37
22,A91U U104A G141A U148A,≤ -4.2
23,C85G C118G,-2.62
24,C93A C99G,-3.88

row,Variant,polymerase ribozyme fitness (log ratio)
1,C85U A147G,-1.25
2,C85U G92A G143U,-4.16
3,G92A A106G,-2.36
4,C87U U102C A147C,-2.24
5,C85U A142C,-1.12
6,U90C C96U,-3.69
7,G86U G133A,≤ -4.2
8,G92A G152U,-3.58
9,G92U C96A U127C U145C A147C,≤ -4.2
10,C87A U127G,≤ -4.2
11,A91U A106C C125A,≤ -4.2
12,G92A C116G,-2.6
13,G92A C116U,-2.29
14,A91U G124U C131G,≤ -4.2
15,G92A C116U C125U U134C,≤ -4.2
16,C85U A115U C118A A120G,-3.37
17,C85U U145C,-0.732
18,A91U A120U,≤ -4.2
19,U90C G126U,-3.66
20,A91G C105U C131A,-3.83
21,C85G U101G G128U,-4.03
22,C87A C93G C108G,≤ -4.2
23,C87A A107G A115U U135C A142C,≤ -4.2
24,A91U A106G,-4.01

row,Variant,polymerase ribozyme fitness (log ratio)
1,G92U G133C,-2.1
2,C85U A89U A106G C125G,-1.15
3,C85G C132G,≤ -4.2
4,A89U C96U A138G U146G,≤ -4.2
5,C87G G92C C105U,0.371
6,A91G C123U,-2.7
7,A91G C123G,-2.82
8,G92C A98U G143A,-1.77
9,G92U A138G,-3.48
10,C85U A120G G124U G143C,-3.46
11,G86U C99G,-3.67
12,C85U A98G A113U U135C,-3.59
13,C87A A97U,≤ -4.2
14,C85G G141U U146A,-0.46
15,C87U A120U C123G,-1.06
16,C85U C96U G126C A147G,≤ -4.2
17,G92U U101G C131U,0.547
18,A89U A107U G133A A142G,≤ -4.2
19,G86A U139G,-1.36
20,C93A A97G,-3.37
21,C93A A97U,-3.38
22,A91U A147U,-3.99
23,G88A C96A C103U,≤ -4.2
24,C87U C96U,-1

row,Variant,polymerase ribozyme fitness (log ratio)
1,C87U C96A,-1.2
2,G92A G126U,-2.26
3,G86U A106C,-1.79
4,A91U U111C,≤ -4.2
5,C87A C103U C108A A110C C132A,≤ -4.2
6,A91U A98G U102G C105U,≤ -4.2
7,C85U C103G,-3.48
8,G86U C103A A121G,-2.73
9,G88A A147C,-4.01
10,C85U U146A G152U,-3.06
11,C87G U144G,≤ -4.2
12,C85G G92C A121C C132U U146A,≤ -4.2
13,G92A C105U G141C,-3.39
14,C85U A150G,-1.76
15,C85U A150C,-2.26
16,G92C A122C A150G,-2.28
17,U90C G94U,-3.46
18,G88U C108G C118U A120U,≤ -4.2
19,A89U A122U,-0.615
20,A91U U145G,≤ -4.2
21,A91G A142C,-3.5
22,C85U U144A,-0.618
23,C85U A98U,-1.49

# Source: the RNAGym collection of RNA variant scans (doi:10.1073/pnas.2313332121)
